# Target: IRF3 (UniProt Q14653)
# Assay: co-immunoprecipitation of tagged proteins, immunoblot
# Details: reference: wild-type TBK1; sites Y174
substance,measurement,value
TBK1 (from UniProt Q9UHD2) TBK1 Y174F,binding against the reference,weaker

# From paper PMC11861356
